# Measured values: US20050182242A1, “Global analysis of protein activities using proteome chips” (priority 2001, published 2005)
# Legend:
# [1] = target: T1, calmodulin (Homo sapiens, UniProt P0DP23); assay: Yeast proteome chip probed with biotinylated calmodulin; assay type: binding; settings: biotinylated calmodulin in the presence of calcium
# T1 construct: purchased CalBiochem, USA
# Excerpt: To test for protein-protein interactions, the yeast proteome was probed with calmodulin (11). Calmodulin is a highly conserved calcium-binding protein involved in many calcium-regulated cellular processes and has many known physical partners (Hook et al., 2001, Annu. Rev. Pharmacol. Toxicol. 41:471). The calmodulin probe was biotinylated, and bound probe was detected using Cy3-labeled streptavidin. As a control, the yeast proteome was probed with Cy3-labeled streptavidin alone.
# Generally, protein-protein interactions can be assayed as follows. Blocked proteome chips are washed three to five times in PBS buffer, and the extra liquid on the glass surface is removed by tapping the slides vertically on a KIMWIPE™. 200 ∞l of biotinylated protein probe is added to the proteome chip and immediately covered by a hydrophobic plastic cover slip (GRACE BIO-LABS™, USA). After trapped air bubbles are removed, the chip is incubated in a humidity chamber at room temperature (RT) for one hour. To remove the cover slip, the chip is immersed into large volume of PBS buffer (>50 ml), and the slip should float away. The chip is then moved to a second PBS bath (>50 ml) and washed 3×5 min with shaking at RT. […]
# [2] = tested on: PI(4,5)P2 liposomes; assay: Yeast proteome chip probed with PI(4,5)P2 liposomes; settings: liposome binding signal on yeast proteome chip, Cy3-streptavidin detection
# Excerpt: (§1) To identify PI-binding proteins in yeast, liposomes were used as probes because the liposome provides the most relevant physiological condition to assay the interactors. Six types of liposomes were used. Each contains phosphatidylcholine (“PC”) with 1% (w/w) N-(biotinoyl)-1,2-dihexadecanoyl-sn-glycero-3-phosphoethanolamine, triethylammonium salt (biotin DHPE). The biotinylated lipid serves as a label that can be detected by Cy3-streptavidin (21). In addition to PC, the five other liposomes contain either 5% (w/w) PI(3)P, PI(4)P, PI(3,4)P2, PI(4,5)P2, or PI(3,4,5)P3 (FIG. 3A).
# (§2) The protein-liposome interaction was assayed as follows. Appropriate amounts of each lipid in chloroform were mixed and dried under nitrogen. The lipid mixture was resuspended in TBS buffer by vortexing. The liposomes were created by sonication. Blocked proteome chips were washed three to five times in PBS buffer, and the extra liquid on the glass surface was removed by tapping the slides vertically on a KIMWIPE™. 200 μl of liposome solution was added to the proteome chip and immediately covered by a hydrophobic plastic cover slip (GRACE BIO-LAB™, USA). After trapped air bubbles were removed, the chip was incubated in a humidity chamber at RT for one hour. To remove the cover slip, the chip was immersed into large volume of PBS buffer (50 ml), so that the slip would float away. The chip was then moved to a second PBS bath (>50 ml) and washed 3×5 min with shaking at RT. After removing extra liquid on the surface of the chip, about 100 μl of Cy3 or Cy5 conjugated streptavidin (PIERCE™, USA; 1:2000 to 1:4000 dilution) was added to the surface and covered by a hydrophobic plastic cover slip (GRACE BIO-LABS™, USA). The chip was incubated for greater than 30 min in the dark at RT. The chip was then washed as described above. To completely remove the liquid on the chip, the chip was spun to dryness at 1500-2000 rpm for 5-10 min at RT.
# (§3) • 1. S. Fields, Y. Kohara, D. J. Lockhart, Proc. Natl. Acad. Sci. 96, 8825 (1999); A. Goffeau et al., Science 274, 563 (1996). • 2 P. Ross-Macdonald et al., Nature 402, 413 (1999); J. L., DeRisi, V. R. Iyer, P. O. Brown, Science 278, 680 (1997); E. A. Winzeler et al., Science 285, 901 (1999). P. Uetz et al., Nature 403, 623 (2000); T. Ito et al., Proc. Natl. Acad. Sci. USA. 97, 1143 (2000) • 3 H. Zhu, M. Snyder, Curr. Opin. Chem. Biol. 5, 40 (2001). • 4 M. R. Martzen et al., Science 286, 1153 (1999). • 5 H. Zhu et al., Nat. Genet. 26, 283 (2000). • 6 G. MacBeath, S. L. Schreiber, Science 289, 1760 (2000). • 7 A. Caveman, J. Cell Sci. 113, 3543 (2000). • 8 P. Arenkov et al., Anal. Biochem 278, 123 (2000). • 9 D. A. Mitchell, T. K. Marshall, R. J. Deschenes, Yeast 9, 715 (1993). The expression vector pEGH was created by inserting an RGS-HisX6 epitope tag between the GST gene and the polycloning site of pEG(KG). The yeast ORFs were cloned using the strategy described previously (5), except every step was done in a 96-well format. Plasmid DNAs confirmed by DNA sequencing were reintroduced into both yeast (Y258) and E. coli (DH5a). […] 0.1 mM calcium was present in buffers in all subsequent steps. The chip was washed three times with PBS at RT. Cy3-conjugated streptavidin (Jackson IR, USA) (1:5000 dilution) was added to the chip and incubated for 30 min at RT. After extensive washing, the chip was spun dry and scanned using a microarray scanner; the data was subsequently acquired with the GENEPIX™ array densitometry software (Axon, USA). • 12 S. S. Hook, A. R. Means, Annu. Rev. Pharmacol. Toxicol.41, 471 (2001). • 13 M. S. Cyert, R. Kunisawa, D. Kaim, J. Thorner, Proc. Natl. Acad. Sci. USA 88, 7376 (1991). • 14 D. A. Stirling, K. A. Welch, M. J. Stark, EMBO J. 13, 4329 (1994). • 15 F. Bohl, Kruse, EMBO J. 19, 5514 (2000); E. Bertrand et al., Mol. Cell 2, 437 (1998). • 16 D. C. Winter, E. Y. Choe, R. Li, Proc. Nat. Acad Sci. USA 96, 7288 (1999). • 17 C.
# [3] = tested on: PI(4)P liposomes; assay: Yeast proteome chip probed with PI(4)P liposomes; settings: liposome binding signal on yeast proteome chip, Cy3-streptavidin detection
# Excerpt: as §1, §2
# as §3, with “Pharmacol. Toxicol.41, 471 (2001). • 13 M. S. Cyert, R. Kunisawa, D. Kaim, J. Thorner, Proc. Natl. Acad. Sci. USA 88, 7376 (1991). • 14 D. A. Stirling, K. A. Welch, M. J. Stark, EMBO J. 13, 4329 (1994). • 15 F. Bohl, Kruse, EMBO J. 19, 5514 (2000); E. Bertrand et al., Mol. Cell 2, 437 (1998). • 16 D. C. Winter, E. Y. Choe, R. Li, Proc. Nat. Acad Sci. USA 96, 7288 (1999). • 17 C.” left out
# [4] = tested on: PI(3,4,5)P3 liposomes; assay: Yeast proteome chip probed with PI(3,4,5)P3 liposomes; settings: liposome binding signal on yeast proteome chip, Cy3-streptavidin detection
# Excerpt: as §1, §2, §3
# [5] = tested on: PI(3,4)P2 liposomes; assay: Yeast proteome chip probed with PI(3,4)P2 liposomes; settings: liposome binding signal on yeast proteome chip, Cy3-streptavidin detection
# Excerpt: as §1, §2, §3
# [6] = tested on: PI(3)P liposomes; assay: Yeast proteome chip probed with PI(3)P liposomes; settings: liposome binding signal on yeast proteome chip, Cy3-streptavidin detection
# Excerpt: as §1
# The protein-liposome interaction was assayed as follows. Appropriate amounts of each lipid in chloroform were mixed and dried under nitrogen. The lipid mixture was resuspended in TBS buffer by vortexing. The liposomes were created by sonication. Blocked proteome chips were washed three to five times in PBS buffer, and the extra liquid on the glass surface was removed by tapping the slides vertically on a KIMWIPE™. 200 μl of liposome solution was added to the proteome chip and immediately covered by a hydrophobic plastic cover slip (GRACE BIO-LAB™, USA). After trapped air bubbles were removed, the chip was incubated in a humidity chamber at RT for one hour. To remove the cover slip, the chip was immersed into large volume of PBS buffer (50 ml), so that the slip would float away. […]
# [7] = tested on: phosphatidylcholine (PC) liposomes; assay: Yeast proteome chip probed with PC liposomes; settings: liposome binding signal on yeast proteome chip, Cy3-streptavidin detection
# Excerpt: as §1, §2
# as §3, with “Pharmacol. Toxicol.41, 471 (2001). • 13 M. S. Cyert, R. Kunisawa, D. Kaim, J. Thorner, Proc. Natl. Acad. Sci. USA 88, 7376 (1991). • 14 D. A. Stirling, K. A. Welch, M. J. Stark, EMBO J. 13, 4329 (1994). • 15 F. Bohl, Kruse, EMBO J. 19, 5514 (2000); E. Bertrand et al., Mol. Cell 2, 437 (1998). • 16 D. C. Winter, E. Y. Choe, R. Li, Proc. Nat. Acad Sci. USA 96, 7288 (1999). • 17 C.” left out
# [8] = tested on: six different liposomes; assay: Reverse membrane assay: proteins spotted on nitrocellulose probed with six liposomes; assay type: binding; settings: HRP-conjugated streptavidin
# Protocol: B. A reverse assay was carried out to test for protein-lipid interactions. The proteins were prepared and spotted onto nitrocellulose filters in a dilution series and probed with the six different liposomes. As a control, the six liposomes were also added to the BSA-blocked membrane. After extensive washing, the bound liposomes were detected using an HRP-conjugated streptavidin and an ECL kit.
# C. Linear correlation between the binding signals and the amounts of Rim15p in a membrane assay. When liposome-binding signals of Rim15p from the membrane assay (FIG. 4B) were plotted against the concentration gradient of the spotted Rim15p, the binding signals of PI(4)P, PI(3,4)P2, PI(3)P, and PI(4,5)P2 correlated linearly with the amounts of Rim15p.
# Therefore, six proteins, i.e., Rim15p, Eno2p, Hxk1p, Sps1p, Yg1059wp, and Gcn2p, were further tested for phosphoinositol binding using two types of standard assays (Williamson, 2000, Nat. Struct Biol. 7(10):834-7). For Rim15p, Eno2p, and Hxk1p, PI(4,5)P2 liposomes were first adhered to a nitrocellulose membrane, which was then blocked by BSA; different amounts of the GST fusion proteins and a GST control were used to probe the membrane, and bound proteins were detected using anti-GST antibodies. […] We also carried out the reverse assay for four GST fusion proteins, Rim15p, Sps1p, Yg1059wp, and Gcn2p (Guerra et al., 2000, Biosci. Rep. 20: 41). Different amounts of these purified proteins were spotted onto nitrocellulose filters and probed with the six different liposomes (FIG. 5B). The bound liposomes were detected using a horseradish peroxidase (“HRP”)-conjugated streptavidin.
Substance,calmodulin binding [1],"PI(4, 5)P2 [2]",PI(4)P [3],"PI(3, 4, 5)P3 [4]","PI(3, 4)P2 [5]",PI(3)P [6],PC [7],liposome binding in reverse membrane assay [8]
Arc35p: component of the Arp2/3 actin-organizing complex,identified,,,,,,,
GCN2: yeast GST-HisX6 fusion protein on proteome chip,,505.60,1356.97,975.60,232.01,26.50,1087.04,"bound strongest to PI(3)P and PI(4)P and PI(3,4)P2"
PET9: yeast GST-HisX6 fusion protein on proteome chip,,26.13,,17.66,−5.81,,14.97,
RRP5: yeast GST-HisX6 fusion protein on proteome chip,,73.38,60.31,21.26,22.60,,58.11,
SDS3: yeast GST-HisX6 fusion protein on proteome chip,,4.35,11.76,9.67,3.45,,,
SSB1: yeast GST-HisX6 fusion protein on proteome chip,,1.31,16.98,4.27,6.28,,12.91,
